# B1: NVVPLCDLLL (peptide)
# peptide: NVVPLCDLLL
# notes: also called ESR1, Y537C
# B2: NVVPLSDLLL (peptide)
# peptide: NVVPLSDLLL
# notes: also called ESR1, Y537S
# B3: NVVPLNDLLL (peptide)
# peptide: NVVPLNDLLL
# notes: also called ESR1, Y537N
# B4: PLYGLLLEM (peptide)
# peptide: PLYGLLLEM
# notes: also called ESR1, D538G
# B5: LIMQLMPFGC (peptide)
# peptide: LIMQLMPFGC
# notes: also called EGFR, T790M
# B6: NVVPLCDLL (peptide)
# peptide: NVVPLCDLL
# notes: also called ESR1, Y537C
# B7: NVVPLNDLL (peptide)
# peptide: NVVPLNDLL
# notes: also called ESR1, Y537N
# B8: NVVPLSDLL (peptide)
# peptide: NVVPLSDLL
# notes: also called ESR1, Y537S
# B9: TQISSATEYL (peptide)
# peptide: TQISSATEYL
# notes: also called ABL1, M351T
# B10: IIIEFMTYGN (peptide)
# peptide: IIIEFMTYGN
# notes: also called ABL1, T315I
# B11: GLLLEMLDA (peptide)
# peptide: GLLLEMLDA
# notes: also called ESR1, D538G
# B12: PLCDLLLEML (peptide)
# peptide: PLCDLLLEML
# notes: also called ESR1, Y537C
# B13: PLNDLLLEML (peptide)
# peptide: PLNDLLLEML
# notes: also called ESR1, Y537N
# B14: PLSDLLLEML (peptide)
# peptide: PLSDLLLEML
# notes: also called E5R1, Y537S (so in the source); ESR1, Y537S
# B15: PLCDLLLEM (peptide)
# peptide: PLCDLLLEM
# notes: also called ESR1, Y537C
# B16: PLSDLLLEM (peptide)
# peptide: PLSDLLLEM
# notes: also called ESR1, Y537S
# B17: PLNDLLLEM (peptide)
# peptide: PLNDLLLEM
# notes: also called ESR1, Y537N
# B18: NVVPLYGLL (peptide)
# peptide: NVVPLYGLL
# notes: also called ESR1, D538G
# B19: GVYTFLPST (peptide)
# peptide: GVYTFLPST
# notes: also called ESR1, S463P
# B20: ALEEKKGNYV (peptide)
# peptide: ALEEKKGNYV
# notes: also called EGFRvIII (internal deletion)
# B21: RLWHLLLQVT (peptide)
# peptide: RLWHLLLQVT
# notes: also called MLL2, . . ; LSPH
# B22: VLPEPHLAL (peptide)
# peptide: VLPEPHLAL
# notes: also called GATA3 . . ; CSNH
# B23: ITAFFLLDI (peptide)
# peptide: ITAFFLLDI
# notes: also called NDUFC2 (-KCDT14)(-1)
# B24: ALAPTLTHML (peptide)
# peptide: ALAPTLTHML
# notes: also called MLL2, . . ; LSPH
# B25: ALAPTLTHM (peptide)
# peptide: ALAPTLTHM
# notes: also called MLL2, . . ; LSPH
# B26: AIQPVLWTT (peptide)
# peptide: AIQPVLWTT
# notes: also called GATA3 . . ; CSNH
# B27: ILLPEDTPPL (peptide)
# peptide: ILLPEDTPPL
# notes: also called MSH6(+1)
# B28: LQVTQTSFAL (peptide)
# peptide: LQVTQTSFAL
# notes: also called MLL2, . . ; LSPH
# B29: LLDILDTAGL (peptide)
# peptide: LLDILDTAGL
# notes: also called KRAS, Q61L
# B30: ALWECSLPQA (peptide)
# peptide: ALWECSLPQA
# notes: also called MSH3(-1)
# B31: CLIVSRTLLL (peptide)
# peptide: CLIVSRTLLL
# notes: also called MSH3(-1)
# B32: FLLALWECS (peptide)
# peptide: FLLALWECS
# notes: also called MSH3(-1)
# B33: LLPEDTPPL (peptide)
# peptide: LLPEDTPPL
# notes: also called MSH6(+1)
# B34: YITAFFLLDI (peptide)
# peptide: YITAFFLLDI
# notes: as for B23
# B35: RLWHLLLQV (peptide)
# peptide: RLWHLLLQV
# notes: also called MLL2, . . ; LSPH
# B36: ITAFFFCWI (peptide)
# peptide: ITAFFFCWI
# notes: also called NDUFC2 (-KCDT14)(+1)
# B37: IVSRTLLLV (peptide)
# peptide: IVSRTLLLV
# notes: also called MSH3(-1)
# B38: LLQVTQTSFA (peptide)
# peptide: LLQVTQTSFA
# notes: also called MLL2, . . ; LSPH
# B39: LIVSRTLLLV (peptide)
# peptide: LIVSRTLLLV
# notes: also called MSH3(-1)
# B40: SVCFFFFCYI (peptide)
# peptide: SVCFFFFCYI
# notes: also called CNOT1(-1)
# B41: VLQRFRFTHV (peptide)
# peptide: VLQRFRFTHV
# notes: also called β2M, . . ; SQIS
# B42: KQWSSVTSL (peptide)
# peptide: KQWSSVTSL
# notes: also called EIF2B3(-1)
# B43: FKLFSCLSFL (peptide)
# peptide: FKLFSCLSFL
# notes: also called C15ORF40(+1)
# B44: MSVCFFFFSV (peptide)
# peptide: MSVCFFFFSV
# notes: also called CNOT1(+1)
# B45: VQWRSLGSL (peptide)
# peptide: VQWRSLGSL
# notes: also called C15ORF40(+1)
# B46: AQAGVQWRSL (peptide)
# peptide: AQAGVQWRSL
# notes: also called C15ORF40(+1)
# B47: FLSSWDYRRM (peptide)
# peptide: FLSSWDYRRM
# notes: also called C15ORF40(+1)
# B48: ALFFFFFET (peptide)
# peptide: ALFFFFFET
# notes: also called C15ORF40(+1)
# B49: GLSISCTTL (peptide)
# peptide: GLSISCTTL
# notes: also called β2M, . . ; MPAV
# B50: FFFSVIFST (peptide)
# peptide: FFFSVIFST
# notes: also called CNOT1(+1)
# B51: ILIRKAMTV (peptide)
# peptide: ILIRKAMTV
# notes: also called EPHB2(-1)
# B52: FFFETKSCSV (peptide)
# peptide: FFFETKSCSV
# notes: also called C15ORF40(+1)
# Target: HLA-A02.01 (human)
# Assay: pMHC-I complex dissociation at 37 C, 125I-b2m, half-life
# Method: Briefly, synthetic genes encoding biotinylated MHC-I heavy and light chains are expressed in E. coli and purified from inclusion bodies using standard methods. […] These reactions are carried out in streptavidin coated microplates to bind the biotinylated MHC-I heavy chains to the surface and allow measurement of radiolabeled light chain to monitor complex formation. Dissociation is initiated by addition of higher concentrations of unlabeled light-chain and incubation at 37° C. Stability is defined as the length of time in hours it takes for half of the complexes to dissociate, as measured by scintillation counts.
row,Binder,Stability (T1/2 (h)) [h]
1,B1,0
2,B2,0
3,B3,0
4,B4,0.7
5,B5,0.4
6,B6,0
7,B7,0
8,B8,0
9,B9,0
10,B10,0
11,B11,0.4
12,B12,0.9
13,B13,0
14,B14,0
15,B15,0.8
16,B16,2.7
17,B17,4.2
18,B18,0
19,B19,1.3
20,B20,0

# Target: T1, HLA class I molecule A02.01
# T1 construct: Purified MHC class I complex; also called HLA-A02:01
# Assay: competition with radiolabeled reference peptide on purified MHC I
# Method: (§1) Peptides were incubated at varying concentrations with these complexes for 2 days, and the amount of remaining radiolabeled peptide bound to […] was measured using size exclusion gel-filtration.
row,Binder,IC50 [nM]
1,B21,50.9
2,B22,16
3,B23,78.7
4,B24,39
5,B25,59
6,B26,8.1
7,B27,6.7
8,B28,718
9,B29,716
10,B30,9
11,B31,2010
12,B32,93.2
13,B33,2.8
14,B34,64.5
15,B35,1.3
16,B36,7490
17,B37,12.7
18,B38,677
19,B39,10900

# Target: HLA-A02.01 (human)
# Assay: competition vs radiolabeled reference peptide on purified MHC I, gel filtration
# Method: as §1
row,Binder,IC50 [nM]
1,B1,1370
2,B2,741
3,B3,4190
4,B40,520
5,B4,640
6,B41,107
7,B42,26.5
8,B43,663
9,B6,3030
10,B7,2900
11,B8,916
12,B44,1710
13,B45,4730
14,B9,2640
15,B46,670
16,B47,324

row,Binder,IC50 [nM]
1,B48,471
2,B11,558
3,B49,114
4,B12,2010
5,B13,12000
6,B14,6470
7,B15,602
8,B16,404
9,B17,151
10,B50,4560
11,B18,10500
12,B51,19.5
13,B19,779
14,B20,141
15,B52,61.2
